Experimental data reported in patent US20260166145A1 (Memorial Sloan Kettering, published 2026).

How the values were obtained:
[1] = biological target: T1, Human CD33-FC protein (R&D Systems) (human, UniProt P20138 18-259); experiment: BLI (Octet RED96e): human CD33-FC captured on anti-hIgG Fc Capture biosensors, scFv in solution; monovalent scFv, not IgG
T1 construct: Bought reagent; also called purified CD33-FC; not shown: Fc part of the bought fusion; it is captured by anti-hIgG Fc biosensors
T1 sequence (P20138 18-259 limits assumed): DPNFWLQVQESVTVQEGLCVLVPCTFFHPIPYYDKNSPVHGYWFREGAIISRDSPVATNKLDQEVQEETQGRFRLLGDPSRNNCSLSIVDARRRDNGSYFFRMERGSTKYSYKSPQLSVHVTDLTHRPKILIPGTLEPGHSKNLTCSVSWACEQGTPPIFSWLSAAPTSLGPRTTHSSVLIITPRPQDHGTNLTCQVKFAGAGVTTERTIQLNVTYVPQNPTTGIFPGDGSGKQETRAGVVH

[2] = biological target: T1, Human CD33-FC protein (R&D Systems); experiment: BLI (Octet RED96e): human CD33-FC captured on anti-hIgG Fc Capture biosensors, antibody in solution; full-length bivalent HuM195 IgG
Text: (§1) Equilibrium dissociation constant (Kd) measurement with bio-layer interferometry (BLI) biosensor. Human CD33-FC protein (R&D Systems, Minneapolis, MN) was captured on Anti-hIgG Fc Capture (AHC) Biosensors (ForteBio, Fremont, CA) overnight and blocked with FC. […] The binding graphs were fitted to a Kd constant model.

[3] = biological target: T1, Human CD33-FC protein (R&D Systems); experiment: BLI (Octet RED96e) on captured human CD33-FC; reference is HuM195 scFv
Text: as §1

[4] = biological target: T1, Human CD33-FC protein (R&D Systems); experiment: competitive ELISA on coated CD33-FC: pre-incubation with increasing HuM195 antibody, then HuM195 scFv at 100 nM, detected with anti-human Fab-HRP; signal normalised to 0 nM HuM195 falls from about 95-100 to about 10 on the axis named Blocked (%)

| Binder | Kd [1] [nM] | Kd [2] [nM] | fold difference of Kd against HuM195 scFv [3] [fold] | IC50 [4] [nM] |
| --- | --- | --- | --- | --- |
| HuM195 single-chain variable fragment (scFv), purified, with C-terminal His-tag (scFv, Expressed from the pSF-CMV-Puro-IL2 secretion plasmid in FreeStyle 293 cells and purified on a Histrap column; Monomeric by size exclusion chromatography; also called HuM195 scFv; Hu195 scFv) scFv: QVQLVQSGAEVKKPGSSVKVSCKASGYTFTDYNMHWVRQAPGQGLEWIGYIYPYNGGTGYNQKFKSKATITADESTNTAYMELSSLRSEDTAVYYCARGRPAMDYWGQGTLVTVSSGGGGSGGGGSGGGGSDIQMTQSPSSLSASVGDRVTITCRASESVDNYGISFMNWFQQKPGGAPKLLIYAASNQGSGVPSRFSGSGSGTDFTLTISSLQPDDFATYYCQQSKEVPWTFGQGTKVEIKHHHHHHHH | 1.81 |  |  |  |
| Lintuzumab (HuM195) antibody (antibody, V domains shown, also called Hu195; Hu195 antibody) VH: QVQLVQSGAEVKKPGSSVKVSCKASGYTFTDYNMHWVRQAPGQGLEWIGYIYPYNGGTGYNQKFKSKATITADESTNTAYMELSSLRSEDTAVYYCARGRPAMDYWGQGTLVTVSS VL: DIQMTQSPSSLSASVGDRVTITCRASESVDNYGISFMNWFQQKPGGAPKLLIYAASNQGSGVPSRFSGSGSGTDFTLTISSLQPDDFATYYCQQSKEVPWTFGQGTKVEIK |  | 0.0627 | ~30 | 0.716 |
